In the supplement of paper PMC10126150:
± gives the standard deviation of the averaged measurements.

System: ATP
Assay: switch fluorescence ratio, 500 uM ATP over buffer (Cy3 cluster intensity, sum of 5 cycles each) (fold (ratio)); higher = stronger signal-on switching upon ATP binding; sequences stand for … in TCGTCGGCAGCGTCAGATGTGTATAAGAGACAGTTTTTTTTTTTTTTTTTTTTTTTTT…TC
Settings: aptamer strand: ATP DNA aptamer (quencher-CACCTGGGGGAGTATTGCGGAGGAAGG + anchor), 100 nM annealed; ATP concentration: 500 uM
Outline: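 Between each of five buffer/ATP cycles, the flow-cell was stripped with NaOH and re-annealed. Each cycle imaged Cy3-labelled switching-strand clusters, annealed to 100 nM quencher-labelled ATP aptamer on a modified Illumina MiSeq flow-cell, first in selection buffer and then after 15 min with 500 uM ATP at 22 °C. The fluorescence ratio is summed target-cycle over summed buffer-cycle Cy3 intensity per cluster, averaged per switch-domain sequence, with clusters outside 100-1000 RFU excluded.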
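Also: ATP exposure 15 min at 22 °C before imaging.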

TTAGGGGAAT
switch fluorescence ratio: 1.43 ± 0.75

TTAGGGGAGG
switch fluorescence ratio: 0.9925 ± 0.0098

TTAGGGGCGC
switch fluorescence ratio: 0.985 ± 0.014

TTAGGGGGAG
switch fluorescence ratio: 1.03 ± 0.065

TTAGGGGGCT
switch fluorescence ratio: 1 ± 0.033

TTAGGGGGGA
switch fluorescence ratio: 0.987 ± 0.032

TTAGGGGGGC
switch fluorescence ratio: 1.02 ± 0.053

TTAGGGGGGG
switch fluorescence ratio: 1 ± 0.052

TTAGGGGGTA
switch fluorescence ratio: 1.12 ± 0.27

TTAGGTAACT
switch fluorescence ratio: 1.01 ± 0.019

TTAGGTCTCT
switch fluorescence ratio: 0.977 ± 0.025

TTAGGTTATC
switch fluorescence ratio: 1.01 ± 0.016

TTAGGTTCTA
switch fluorescence ratio: 1.08 ± 0.12

TTAGGTTGTT
switch fluorescence ratio: 1.01 ± 0.013

TTAGTAGAGT
switch fluorescence ratio: 1 ± 0.013

TTAGTATGGA
switch fluorescence ratio: 0.9837 ± 0.0013

TTAGTATTAC
switch fluorescence ratio: 1.05 ± 0.029

TTAGTCAATG
switch fluorescence ratio: 0.999 ± 0.022

TTAGTCATTC
switch fluorescence ratio: 0.99 ± 0.038

TTAGTCCCGC
switch fluorescence ratio: 1.066 ± 0.0024

TTAGTCGATA
switch fluorescence ratio: 0.9767 ± 0.0021

TTAGTCGGAG
switch fluorescence ratio: 0.981 ± 0.01

TTAGTCTTGA
switch fluorescence ratio: 0.9796 ± 0.0028

TTAGTGACA
switch fluorescence ratio: 1.042 ± 0.0095

TTAGTGACGT
switch fluorescence ratio: 1.037 ± 0.0016

TTAGTGATGT
switch fluorescence ratio: 1.03 ± 0.0097

TTAGTGGGTT
switch fluorescence ratio: 1.01 ± 0.024

TTAGTGTTTG
switch fluorescence ratio: 1.02 ± 0.006

TTAGTTATAT
switch fluorescence ratio: 1.013 ± 0.0099

TTAGTTATTA
switch fluorescence ratio: 1.017 ± 0.0041

TTAGTTGGGG
switch fluorescence ratio: 1.01 ± 0.032

TTAGTTGTAG
switch fluorescence ratio: 0.993 ± 0.026

TTAGTTTGGA
switch fluorescence ratio: 0.959 ± 0.04

TTAGTTTGGG
switch fluorescence ratio: 1.02 ± 0.016

TTAGTTTTTA
switch fluorescence ratio: 0.991 ± 0.022

TTATAAATCT
switch fluorescence ratio: 1.008 ± 0.0092

TTATAACCTG
switch fluorescence ratio: 1.02 ± 0.037

TTATAACGTA
switch fluorescence ratio: 1.07 ± 0.044

TTATAATTAT
switch fluorescence ratio: 1.09 ± 0.092

TTATACTGGG
switch fluorescence ratio: 0.992 ± 0.012

TTATAGATAT
switch fluorescence ratio: 0.994 ± 0.015

TTATAGGCAG
switch fluorescence ratio: 0.987 ± 0.01

TTATAGGCGT
switch fluorescence ratio: 1 ± 0.02

TTATAGGTGC
switch fluorescence ratio: 1.11 ± 0.022

TTATAGGTTA
switch fluorescence ratio: 1.02 ± 0.015

TTATATACCA
switch fluorescence ratio: 1.03 ± 0.079

TTATATATTT
switch fluorescence ratio: 0.993 ± 0.015

TTATATCAAT
switch fluorescence ratio: 0.9999 ± 0.0041

TTATATCGTT
switch fluorescence ratio: 0.998 ± 0.017

TTATATCTTG
switch fluorescence ratio: 1.0191 ± 0.00086

TTATATGGAG
switch fluorescence ratio: 0.979 ± 0.034

TTATATGGTG
switch fluorescence ratio: 0.98 ± 0.041

TTATATGTGA
switch fluorescence ratio: 1.04 ± 0.011

TTATATTCTG
switch fluorescence ratio: 0.9893 ± 0.0041

TTATATTTCG
switch fluorescence ratio: 1 ± 0.032

TTATCAATAA
switch fluorescence ratio: 1.42 ± 0.57

TTATCATAGG
switch fluorescence ratio: 1.01 ± 0.012

TTATCATAGT
switch fluorescence ratio: 1.005 ± 0.0064

TTATCCAGGC
switch fluorescence ratio: 1.02 ± 0.12

TTATCGAGGC
switch fluorescence ratio: 1.06 ± 0.059

TTATCGCAGA
switch fluorescence ratio: 1 ± 0.015

TTATCGCTTA
switch fluorescence ratio: 1.04 ± 0.098

TTATCGGCCA
switch fluorescence ratio: 1 ± 0.067

TTATCGGGGC
switch fluorescence ratio: 1 ± 0.025

TTATCGGTTT
switch fluorescence ratio: 0.958 ± 0.019

TTATCTAGCT
switch fluorescence ratio: 1.03 ± 0.023

TTATCTAGGG
switch fluorescence ratio: 0.997 ± 0.041

TTATCTCATT
switch fluorescence ratio: 1 ± 0.028

TTATCTGGAT
switch fluorescence ratio: 1 ± 0.022

TTATCTGGGA
switch fluorescence ratio: 0.9995 ± 0.0079

TTATCTGGGG
switch fluorescence ratio: 1.01 ± 0.055

TTATCTTGTC
switch fluorescence ratio: 1.03 ± 0.072

TTATCTTTGT
switch fluorescence ratio: 0.9758 ± 0.007

TTATCTTTTT
switch fluorescence ratio: 1 ± 0.032

TTATGACTCA
switch fluorescence ratio: 1.01 ± 0.03

TTATGACTGT
switch fluorescence ratio: 1.015 ± 0.01

TTATGAGGTG
switch fluorescence ratio: 1.08 ± 0.061

TTATGATACG
switch fluorescence ratio: 1.01 ± 0.017

TTATGATGAT
switch fluorescence ratio: 1.006 ± 0.01

TTATGATGGG
switch fluorescence ratio: 0.99 ± 0.017

TTATGATTGG
switch fluorescence ratio: 0.987 ± 0.02

TTATGCACGG
switch fluorescence ratio: 1.01 ± 0.044

TTATGCACGT
switch fluorescence ratio: 1.04 ± 0.049

TTATGCAGGA
switch fluorescence ratio: 0.955 ± 0.057

TTATGCAGGT
switch fluorescence ratio: 1.0341 ± 0.00034

TTATGCATGA
switch fluorescence ratio: 1 ± 0.047

TTATGGATAA
switch fluorescence ratio: 1 ± 0.018

TTATGGATTT
switch fluorescence ratio: 1.01 ± 0.037

TTATGGGGTA
switch fluorescence ratio: 1.04 ± 0.049

TTATGGGGTG
switch fluorescence ratio: 1.01 ± 0.027

TTATGGGTCG
switch fluorescence ratio: 0.99 ± 0.034

TTATGTCAGC
switch fluorescence ratio: 1.01 ± 0.023

TTATGTCTTC
switch fluorescence ratio: 0.984 ± 0.026

TTATGTGAGG
switch fluorescence ratio: 0.977 ± 0.034

TTATGTGAGT
switch fluorescence ratio: 0.972 ± 0.0085

TTATGTGCTG
switch fluorescence ratio: 1.02 ± 0.041

TTATGTGGAG
switch fluorescence ratio: 0.974 ± 0.015

TTATGTGGGA
switch fluorescence ratio: 0.975 ± 0.037

TTATGTGGTA
switch fluorescence ratio: 1 ± 0.02

TTATGTGTTG
switch fluorescence ratio: 1.01 ± 0.011

TTATGTTACT
switch fluorescence ratio: 1.059 ± 0.0023

TTATGTTAGT
switch fluorescence ratio: 1.01 ± 0.056

TTATTAAAGG
switch fluorescence ratio: 1.02 ± 0.071

TTATTAAGAA
switch fluorescence ratio: 1.02 ± 0.063

TTATTAAGAC
switch fluorescence ratio: 1 ± 0.032

TTATTAGGGC
switch fluorescence ratio: 1 ± 0.083

TTATTAGTCG
switch fluorescence ratio: 1.017 ± 0.0064

TTATTATAAT
switch fluorescence ratio: 0.982 ± 0.021

TTATTATGGC
switch fluorescence ratio: 0.993 ± 0.05

TTATTATTAC
switch fluorescence ratio: 1.04 ± 0.062

TTATTATTGT
switch fluorescence ratio: 0.982 ± 0.037

TTATTGACAT
switch fluorescence ratio: 0.995 ± 0.021

TTATTGACGC
switch fluorescence ratio: 0.937 ± 0.095

TTATTGCACG
switch fluorescence ratio: 1.07 ± 0.068

TTATTGCAGC
switch fluorescence ratio: 1.07 ± 0.063

TTATTGCCTT
switch fluorescence ratio: 1.03 ± 0.025

TTATTGCTTA
switch fluorescence ratio: 0.97037 ± 0.00059

TTATTGGAGA
switch fluorescence ratio: 0.996 ± 0.015

TTATTGGAGC
switch fluorescence ratio: 0.981 ± 0.015

TTATTGGTAT
switch fluorescence ratio: 0.998 ± 0.018

TTATTGGTCC
switch fluorescence ratio: 0.989 ± 0.045

TTATTGGTCG
switch fluorescence ratio: 1.02 ± 0.061

TTATTGGTGG
switch fluorescence ratio: 0.966 ± 0.04

TTATTGTGTG
switch fluorescence ratio: 1 ± 0.023

TTATTGTGTT
switch fluorescence ratio: 1.01 ± 0.028

TTATTTAAAT
switch fluorescence ratio: 1 ± 0.04

TTATTTAGAG
switch fluorescence ratio: 0.985 ± 0.027

TTATTTAGGT
switch fluorescence ratio: 1.01 ± 0.043

TTATTTATAT
switch fluorescence ratio: 0.971 ± 0.013

TTATTTATGC
switch fluorescence ratio: 1.02 ± 0.055

TTATTTATTG
switch fluorescence ratio: 0.99 ± 0.016

TTATTTGCGG
switch fluorescence ratio: 0.989 ± 0.025

TTATTTGGAG
switch fluorescence ratio: 0.986 ± 0.025

TTATTTGGGC
switch fluorescence ratio: 1.06 ± 0.081

TTATTTGTCG
switch fluorescence ratio: 1.01 ± 0.019

TTATTTTAGG
switch fluorescence ratio: 0.988 ± 0.044

TTATTTTCTG
switch fluorescence ratio: 1 ± 0.014

TTATTTTGTG
switch fluorescence ratio: 0.987 ± 0.035

TTATTTTGTT
switch fluorescence ratio: 0.982 ± 0.034

TTATTTTTTA
switch fluorescence ratio: 0.993 ± 0.028

TTCAAATCGT
switch fluorescence ratio: 0.991 ± 0.013

TTCAACTGGG
switch fluorescence ratio: 1.104 ± 0.0025

TTCAAGCGCT
switch fluorescence ratio: 0.967 ± 0.019

TTCAAGCTGA
switch fluorescence ratio: 1.09 ± 0.069

TTCAAGGCAG
switch fluorescence ratio: 1.03 ± 0.043

TTCAAGTAGT
switch fluorescence ratio: 0.997 ± 0.02

TTCAAGTGTT
switch fluorescence ratio: 0.987 ± 0.029

TTCAATAGGG
switch fluorescence ratio: 1.02 ± 0.036

TTCAATATAG
switch fluorescence ratio: 1.21 ± 0.29

TTCAATGTCA
switch fluorescence ratio: 0.99 ± 0.043

TTCAATTGTG
switch fluorescence ratio: 0.9958 ± 0.0053

TTCACGGGGG
switch fluorescence ratio: 1.018 ± 0.0078

TTCACGGTTC
switch fluorescence ratio: 1.02 ± 0.027

TTCACTAGGT
switch fluorescence ratio: 1.01 ± 0.039

TTCACTCCGG
switch fluorescence ratio: 1.2 ± 0.071

TTCAGAGTTG
switch fluorescence ratio: 0.985 ± 0.095

TTCAGATAGA
switch fluorescence ratio: 0.9875 ± 0.0037

TTCAGATCCG
switch fluorescence ratio: 0.967 ± 0.0076

TTCAGATGAA
switch fluorescence ratio: 0.9987 ± 0.0015

TTCAGATTAC
switch fluorescence ratio: 1.04 ± 0.024

TTCAGGAATG
switch fluorescence ratio: 1.01 ± 0.049

TTCAGGCGGT
switch fluorescence ratio: 0.992 ± 0.025

TTCAGGGGTG
switch fluorescence ratio: 1.1 ± 0.033

TTCAGGGTAC
switch fluorescence ratio: 0.987 ± 0.039

TTCAGTAAGA
switch fluorescence ratio: 1 ± 0.04

TTCAGTAGAT
switch fluorescence ratio: 0.951 ± 0.032

TTCAGTATTT
switch fluorescence ratio: 1.08 ± 0.09

TTCAGTGGGG
switch fluorescence ratio: 0.991 ± 0.039

TTCAGTGGGT
switch fluorescence ratio: 0.9787 ± 0.009

TTCAGTTTTT
switch fluorescence ratio: 1 ± 0.026

TTCATAACTT
switch fluorescence ratio: 0.99 ± 0.018

TTCATAATA
switch fluorescence ratio: 1.024 ± 0.0029

TTCATAGGCT
switch fluorescence ratio: 1.03 ± 0.025

TTCATATGTT
switch fluorescence ratio: 0.981 ± 0.012

TTCATCATAG
switch fluorescence ratio: 1.05 ± 0.029

TTCATCATGT
switch fluorescence ratio: 1.02 ± 0.023

TTCATCGGGA
switch fluorescence ratio: 0.981 ± 0.055

TTCATCGTTT
switch fluorescence ratio: 0.968 ± 0.011

TTCATCTGTT
switch fluorescence ratio: 0.9711 ± 0.0084

TTCATGCATC
switch fluorescence ratio: 1.83 ± 1.2

TTCATGCTTT
switch fluorescence ratio: 0.9882 ± 0.0097

TTCATGGGT
switch fluorescence ratio: 1.017 ± 0.0054

TTCATGTGTG
switch fluorescence ratio: 1 ± 0.081

TTCATGTTGT
switch fluorescence ratio: 0.984 ± 0.027

TTCATTGGTA
switch fluorescence ratio: 1.0186 ± 0.00056

TTCATTTCGT
switch fluorescence ratio: 1 ± 0.024

TTCATTTTGG
switch fluorescence ratio: 1.05 ± 0.07

TTCATTTTTG
switch fluorescence ratio: 0.998 ± 0.044

TTCCAATGTG
switch fluorescence ratio: 1.01 ± 0.029

TTCCAATTTT
switch fluorescence ratio: 1.03 ± 0.027

TTCCACAGGA
switch fluorescence ratio: 1.15 ± 0.15

TTCCACGAAG
switch fluorescence ratio: 0.996 ± 0.012

TTCCAGTAGT
switch fluorescence ratio: 1.01 ± 0.03

TTCCATGGGA
switch fluorescence ratio: 0.9894 ± 0.0098

TTCCATTTTG
switch fluorescence ratio: 0.992 ± 0.032

TTCCCCATGG
switch fluorescence ratio: 1.43 ± 0.6

TTCCCCGGTG
switch fluorescence ratio: 1.21 ± 0.24

TTCCCGATGT
switch fluorescence ratio: 1.02 ± 0.0059

TTCCCGGCTG
switch fluorescence ratio: 1.03 ± 0.016

TTCCCGTGCT
switch fluorescence ratio: 1.022 ± 0.0076
